Experiments:
[1] = biological target: T1, Full length human CD40 (huCD40) on cells (human, UniProt P25942 21-277); experiment: cell-based or functional assay
[2] = biological target: T1, Full length human CD40 (huCD40) on cells; experiment: flow cytometry, human DCs; separate experiment
[3] = biological target: T1, Full length human CD40 (huCD40) on cells; experiment: flow cytometry, human B cells; separate experiment
[4] = biological target: T1, Full length human CD40 (huCD40) on cells; experiment: flow cytometry, HEK-Blue CD40L cells; separate experiment

T1 sequence (P25942 21-277): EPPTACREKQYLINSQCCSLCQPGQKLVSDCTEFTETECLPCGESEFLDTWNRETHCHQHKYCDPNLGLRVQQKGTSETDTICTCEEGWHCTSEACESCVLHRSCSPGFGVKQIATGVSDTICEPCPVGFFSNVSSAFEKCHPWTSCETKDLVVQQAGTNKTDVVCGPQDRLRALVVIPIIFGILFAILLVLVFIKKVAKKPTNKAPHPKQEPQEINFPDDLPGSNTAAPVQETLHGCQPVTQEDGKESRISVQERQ

- EC50, Human B cells (CD83), separate experiment [1]: 0.000334 µg/mL
- EC50, Human DC (HLA-DR), separate experiment [1]: 0.0185 µg/mL
- EC50, agonistic activity on HEK-Blue™ CD40L cells (NF-κB/SEAP), separate experiment [1]: 0.00633 µg/mL
- EC50 [2]: 0.0572 µg/mL
- EC50 [3]: 0.0228 µg/mL
- EC50 [4]: 0.464 µg/mL
B1: C40M121 (antibody, human IgG1, lambda, V domains shown)
VH: QLQLQESGPGLVKPSETLSLTCTVSGGSISSSSYYWGWIRQPPGKGLEWIGNIYYRGDTYYSPSLKSRVTISVDTSKNQFSLKLSSVTAADTAVYYCAKGFRFDYWGQGTLVTVSS
VL: QSALTQPPSASGSPGQSVTISCTGTSSDVGGYNYVSWYQQHPGKAPKLMIYEVSKRPSGVPDRFSGSKSGNTASLTVSGLQAEDEADYYCSSYAGSNNLVFGGGTKLTVLG
